Results reported in the RNAGym collection of RNA variant scans (doi:10.1093/molbev/msab373).

B1: Azoarcus group I ribozyme (parent)
chain: GUGCCUUGCGCCGGGAAACCACGCAAGGGAUGGUGUCAAAUUCGGCGAAACCUAAGCGCCCGCCCGGGCGUAUGGCAACGCCGAGCCAAGCUUCGGCGCCUGCGCCGAUGAAGGUGUAGAGACUAGACGGCACCCACCUAAGGCAAACGCUAUGGUGAAGGCAUAGUCCAGGGAGUGGCGAAAGUCACACAAACCGG

Variants of: B1
Assay: reverse-splicing fitness (ratio to wild type); higher = more active; in vitro selection; Mg2+ level not given
Summary of the method: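 An in vitro group I ribozyme library with randomized positions was T7-transcribed and gel-purified. In triplicate, 10 pmol RNA in EPPS pH 7.5 was reacted with 50 pmoles of a 30-nt RNA substrate for 1 h at 37 °C across several added MgCl2 levels (1–48 mM), then stopped with EDTA. Products were reverse transcribed from a substrate-complementary primer, PCR-amplified and sequenced (HiSeq 4000). Fitness is a variant's read proportion after selection over that before, normalised to wild type.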

Variant | reverse-splicing fitness
C82G A145U C169A U176A | 0.00756
C82G A145U C169A U176G | 0.00461
C82G A145U C169A U176C | 0.00844
C82G C150A C169G U176C | 0.0214
C82G C150A C169G U176G | 0.00539
C82G C150A C169G U176A | 0.0179
C82G C150G C169U | 0.00971
C82G C150G C169A | 0.00919
C82G C150G C169G | 0.00811
C82G C169A U176G | 0.00463
C82G C169A U176C | 0.0165
C82G C169A U176A | 0.0146
C82G A145G C150G C169A U176G | 0.00858
C82G A145G C150G C169A U176C | 0.0144
C82G A145U C150A C169A U176G | 0.00561
C82G A145U C150A C169A U176A | 0.0121
C82G A145U C150A C169A U176C | 0.0106
C82G A145G C150G U176C | 0.0452
C82G A145G C150G U176G | 0.0127
C82G A145G C150G U176A | 0.0343
C82G A145G C150G C169G U176A | 0.0113
C82G A145G C150G C169G U176C | 0.0146
C82G A145G C150G C169G U176G | 0.00613
C82G A145G C150U C169A U176A | 0.0169

Variant | reverse-splicing fitness
C82G A145G C150U C169A U176G | 0.00619
C82G A145G C150U C169A U176C | 0.0162
C82G A145U C150U C169A U176A | 0.0114
C82G A145U C150U C169A U176G | 0.00466
C82G A145U C150U C169A U176C | 0.00851
C82G A145U C150G C169U | 0.0092
C82G A145U C150G C169G | 0.00774
C82G A145U C150G C169A | 0.00874
C82G A145U C150U C169U U176G | 0.00492
C82G A145U C150U C169U U176A | 0.0118
C82G A145U C150U C169U U176C | 0.0121
C82G C150G C169U U176C | 0.0132
C82G C150G C169U U176G | 0.00593
C82G C150G C169U U176A | 0.00858
C82G C150A C169U U176A | 0.0154
C82G C150A C169U U176G | 0.0071
C82G C150A C169U U176C | 0.0141
C82G C150A C169A U176G | 0.00584
C82G C150A C169A U176C | 0.0158
C82G C150A C169A U176A | 0.0213
C82G A145G C150G C169U U176G | 0.0072
C82G A145G C150G C169U U176A | 0.0126
C82G A145G C150G C169U U176C | 0.0131
C82G C150A C169U | 0.0101

Variant | reverse-splicing fitness
C82G C150A C169G | 0.00937
C82G C150A C169A | 0.00956
C82G A145G C150U U176C | 0.291
C82G A145G C150U U176G | 0.106
C82G A145G C150U U176A | 0.264
C82G C150U U176G | 0.0728
C82G C150U U176A | 0.181
C82G C150U U176C | 0.206
C82G A145G C169A | 0.00951
C82G A145G C169G | 0.0112
C82G A145G C169U | 0.0164
C82G C150G C169A U176A | 0.0112
C82G C150G C169A U176G | 0.00752
C82G C150G C169A U176C | 0.00997
C82G A145U C150A C169U U176G | 0.00507
C82G A145U C150A C169U U176A | 0.0124
C82G A145U C150A C169U U176C | 0.013
C82G A145G C169G U176A | 0.0176
C82G A145G C169G U176C | 0.0279
C82G A145G C169G U176G | 0.00454
C82G A145U C150A C169U | 0.00756
C82G A145U C150A C169A | 0.00972
C82G A145U C150A C169G | 0.00669
C82G C150G | 0.0318

Variant | reverse-splicing fitness
C82G C150A | 0.0416
C82G C150U | 0.252
C82G A145G C150U C169G U176C | 0.0184
C82G A145G C150U C169G U176A | 0.0145
C82G A145G C150U C169G U176G | 0.00499
C82G A145G C150U C169U U176C | 0.015
C82G A145G C150U C169U U176G | 0.0045
C82G A145G C150U C169U U176A | 0.0145
C82G A145G C169U U176A | 0.0138
C82G A145G C169U U176C | 0.0155
C82G A145G C169U U176G | 0.00412
C82G C169U | 0.017
C82G C169G | 0.0111
C82G C169A | 0.00968
C82G A145U C150U C169G | 0.0103
C82G A145U C150U C169A | 0.00964
C82G A145U C150U C169U | 0.0123
C82G A145U C150U C169G U176G | 0.00545
C82G A145U C150U C169G U176A | 0.0117
C82G A145U C150U C169G U176C | 0.0131
C82G A145U U176A | 0.395
C82G A145U U176C | 0.405
C82G A145U U176G | 0.175
C82G A145U | 0.509

Variant | reverse-splicing fitness
C82G A145G C169A U176G | 0.00413
C82G A145G C169A U176C | 0.0249
C82G A145G C169A U176A | 0.0187
C82G A145G C150G C169U | 0.011
C82G A145G C150G C169G | 0.00848
C82G A145U C169G | 0.0104
C82G A145U C169U | 0.0147
C82G A145U C169A | 0.00844
C82G A145U C150U U176A | 0.236
C82G A145U C150U U176C | 0.234
C82G A145U C150U U176G | 0.0935
C82G A145U C150A U176C | 0.0384
C82G A145U C150A U176G | 0.0186
C82G A145U C150A U176A | 0.0428
C82G A145G C150U | 0.401
C82G A145U C150A C169G U176A | 0.0109
C82G A145U C150A C169G U176C | 0.0129
C82G A145U C150A C169G U176G | 0.00436
C82G A145G C150U C169U | 0.0159
C82G A145G C150U C169A | 0.0118
C82G A145G C150U C169G | 0.012
C82G A145U C169U U176A | 0.0116
C82G A145U C169U U176G | 0.00368
C82G A145U C169U U176C | 0.0136

Variant | reverse-splicing fitness
C82G A145U C169G U176C | 0.0115
C82G A145U C169G U176A | 0.00948
C82G A145U C169G U176G | 0.00439
C82G A145U C150G C169A U176A | 0.0121
C82G A145U C150G C169A U176C | 0.0105
C82G A145U C150G C169A U176G | 0.00553
C82G C150A U176A | 0.0422
C82G C150A U176C | 0.0447
C82G C150A U176G | 0.0188
C82G A145U C150G C169G U176G | 0.00508
C82G A145U C150G C169G U176A | 0.00882
C82G A145U C150G C169G U176C | 0.00645
C82G A145U C150U | 0.321
C82G A145U C150G | 0.0473
C82G A145U C150A | 0.0405
C82G C150U C169G U176G | 0.00501
C82G C150U C169G U176A | 0.0154
C82G C150U C169G U176C | 0.0199
C82G C169U U176A | 0.0135
C82G C169U U176C | 0.0165
C82G A145U C150G C169U U176A | 0.00876
C82G A145U C150G C169U U176G | 0.0049
C82G A145U C150G C169U U176C | 0.0119
C82G C150U C169U U176C | 0.0159

Variant | reverse-splicing fitness
C82G C150U C169U U176A | 0.0142
C82G C150U C169U U176G | 0.00459
C82G C150U C169A | 0.0106
C82G C150U C169G | 0.0104
C82G C150U C169U | 0.0143
C82G C150G C169G U176A | 0.00727
C82G C150G C169G U176G | 0.00511
C82G C150G C169G U176C | 0.00598
C82G A145U C150G U176A | 0.0361
C82G A145U C150G U176G | 0.0103
C82G A145U C150G U176C | 0.0376
C82G C150U C169A U176A | 0.0176
C82G C150U C169A U176C | 0.0132
C82G C150U C169A U176G | 0.00526
C82G C150G U176A | 0.0255
C82G C150G U176C | 0.0287
C82G C150G U176G | 0.00797
C82G C169G U176A | 0.0155
C82G C169G U176G | 0.00418
C82G C169G U176C | 0.0235
C82G A145G U176C | 0.374
C82G A145G U176G | 0.133
C82G A145G U176A | 0.341
